Values quoted from earlier work in PMC2978668.
Read-outs that look alike come from different tables or passages of the source.

How the values were obtained:
perlecan domain IV [1] = biological target: perlecan domain IV (UniProt P98160)
perlecan domain IV [2] = biological target: perlecan domain IV (UniProt P98160); remark: listed apart in the source
fibulin-2 = fibulin-2 (UniProt P98095)
fibronectin = fibronectin (UniProt P02751)
agrin (muscle) = agrin (muscle) (UniProt O00468)
perlecan LG = perlecan LG (UniProt P98160)
α5-laminin = α5-laminin (UniProt O15230)
α1-laminin = α1-laminin (UniProt P25391)
α2-laminin = α2-laminin (UniProt P24043)
α4-laminin = α4-laminin (UniProt Q16363)

Sequence of α-dystroglycan (Q14118 30-653): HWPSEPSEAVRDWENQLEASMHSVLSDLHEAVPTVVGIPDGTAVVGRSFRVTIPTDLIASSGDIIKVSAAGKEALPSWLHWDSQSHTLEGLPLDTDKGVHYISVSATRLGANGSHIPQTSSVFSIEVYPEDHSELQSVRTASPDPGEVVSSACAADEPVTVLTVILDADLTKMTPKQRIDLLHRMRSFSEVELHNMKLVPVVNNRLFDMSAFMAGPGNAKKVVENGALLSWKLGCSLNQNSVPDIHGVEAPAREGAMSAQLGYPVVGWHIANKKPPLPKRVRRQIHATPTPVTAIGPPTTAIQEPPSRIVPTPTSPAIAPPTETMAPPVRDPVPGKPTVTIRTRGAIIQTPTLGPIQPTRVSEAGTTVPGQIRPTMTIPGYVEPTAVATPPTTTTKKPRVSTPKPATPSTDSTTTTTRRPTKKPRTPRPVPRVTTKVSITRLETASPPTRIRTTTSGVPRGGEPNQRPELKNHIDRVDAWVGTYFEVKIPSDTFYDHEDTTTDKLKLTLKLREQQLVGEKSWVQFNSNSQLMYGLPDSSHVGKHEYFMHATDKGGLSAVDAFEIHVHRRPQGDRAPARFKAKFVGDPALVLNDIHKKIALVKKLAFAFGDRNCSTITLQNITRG
Sequence of perlecan domain IV (UniProt P98160) (P98160 1677-3686): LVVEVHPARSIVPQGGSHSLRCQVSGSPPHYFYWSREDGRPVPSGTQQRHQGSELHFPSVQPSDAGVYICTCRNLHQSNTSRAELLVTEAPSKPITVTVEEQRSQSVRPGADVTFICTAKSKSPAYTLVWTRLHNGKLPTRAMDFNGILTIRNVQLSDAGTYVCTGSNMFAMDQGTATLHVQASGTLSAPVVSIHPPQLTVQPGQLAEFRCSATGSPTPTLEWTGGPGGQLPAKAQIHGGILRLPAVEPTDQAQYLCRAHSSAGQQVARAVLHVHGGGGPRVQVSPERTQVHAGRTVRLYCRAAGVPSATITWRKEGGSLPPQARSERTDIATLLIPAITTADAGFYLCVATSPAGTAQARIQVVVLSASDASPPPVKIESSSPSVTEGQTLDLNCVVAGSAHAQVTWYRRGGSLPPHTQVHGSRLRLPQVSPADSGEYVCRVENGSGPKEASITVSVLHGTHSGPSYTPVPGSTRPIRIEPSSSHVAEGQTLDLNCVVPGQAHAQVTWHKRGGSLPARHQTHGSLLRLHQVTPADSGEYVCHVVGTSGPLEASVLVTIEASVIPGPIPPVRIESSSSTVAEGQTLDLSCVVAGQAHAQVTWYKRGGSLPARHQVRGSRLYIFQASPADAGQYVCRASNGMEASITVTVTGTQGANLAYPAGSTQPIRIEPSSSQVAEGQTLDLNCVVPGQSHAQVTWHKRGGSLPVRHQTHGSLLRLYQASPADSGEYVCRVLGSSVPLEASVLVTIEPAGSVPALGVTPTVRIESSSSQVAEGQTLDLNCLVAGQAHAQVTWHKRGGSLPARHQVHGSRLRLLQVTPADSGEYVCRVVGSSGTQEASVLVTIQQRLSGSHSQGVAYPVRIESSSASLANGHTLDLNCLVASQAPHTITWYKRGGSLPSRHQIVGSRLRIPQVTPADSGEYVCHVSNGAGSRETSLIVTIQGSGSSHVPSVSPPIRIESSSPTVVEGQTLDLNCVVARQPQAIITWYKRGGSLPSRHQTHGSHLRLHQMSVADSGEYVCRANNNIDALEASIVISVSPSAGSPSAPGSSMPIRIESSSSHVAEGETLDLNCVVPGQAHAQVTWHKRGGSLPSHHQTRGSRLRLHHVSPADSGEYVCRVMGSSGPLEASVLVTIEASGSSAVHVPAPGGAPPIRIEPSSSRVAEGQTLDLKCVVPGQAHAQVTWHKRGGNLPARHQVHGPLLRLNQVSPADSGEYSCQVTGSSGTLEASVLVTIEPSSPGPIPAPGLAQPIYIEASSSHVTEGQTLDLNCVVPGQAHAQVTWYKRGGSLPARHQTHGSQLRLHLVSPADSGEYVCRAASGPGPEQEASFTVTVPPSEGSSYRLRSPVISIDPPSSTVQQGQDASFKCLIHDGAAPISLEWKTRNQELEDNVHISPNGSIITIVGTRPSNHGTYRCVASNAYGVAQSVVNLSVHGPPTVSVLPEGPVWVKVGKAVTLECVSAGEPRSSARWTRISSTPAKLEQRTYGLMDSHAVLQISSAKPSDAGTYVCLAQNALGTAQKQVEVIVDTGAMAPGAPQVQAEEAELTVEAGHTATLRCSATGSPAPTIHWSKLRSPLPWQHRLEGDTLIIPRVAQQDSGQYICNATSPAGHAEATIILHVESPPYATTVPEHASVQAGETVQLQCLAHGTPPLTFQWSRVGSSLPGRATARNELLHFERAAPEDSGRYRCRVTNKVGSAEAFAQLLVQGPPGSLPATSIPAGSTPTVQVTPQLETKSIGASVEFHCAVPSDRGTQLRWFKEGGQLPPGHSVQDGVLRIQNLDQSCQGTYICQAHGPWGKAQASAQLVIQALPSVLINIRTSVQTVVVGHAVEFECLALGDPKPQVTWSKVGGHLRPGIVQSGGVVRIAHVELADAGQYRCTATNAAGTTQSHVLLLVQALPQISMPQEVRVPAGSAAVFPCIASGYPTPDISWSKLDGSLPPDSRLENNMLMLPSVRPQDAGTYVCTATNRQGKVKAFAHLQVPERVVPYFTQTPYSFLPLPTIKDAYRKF
Sequence of nidogen-1 G2 (P14543 430-667): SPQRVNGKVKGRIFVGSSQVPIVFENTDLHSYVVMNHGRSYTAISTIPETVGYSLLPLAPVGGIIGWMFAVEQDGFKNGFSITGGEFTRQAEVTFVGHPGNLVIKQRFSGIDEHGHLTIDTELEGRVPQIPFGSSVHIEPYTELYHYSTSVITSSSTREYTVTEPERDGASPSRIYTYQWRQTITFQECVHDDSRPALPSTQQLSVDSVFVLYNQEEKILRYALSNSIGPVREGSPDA
Sequence of perlecan LG (P98160 3687-4391): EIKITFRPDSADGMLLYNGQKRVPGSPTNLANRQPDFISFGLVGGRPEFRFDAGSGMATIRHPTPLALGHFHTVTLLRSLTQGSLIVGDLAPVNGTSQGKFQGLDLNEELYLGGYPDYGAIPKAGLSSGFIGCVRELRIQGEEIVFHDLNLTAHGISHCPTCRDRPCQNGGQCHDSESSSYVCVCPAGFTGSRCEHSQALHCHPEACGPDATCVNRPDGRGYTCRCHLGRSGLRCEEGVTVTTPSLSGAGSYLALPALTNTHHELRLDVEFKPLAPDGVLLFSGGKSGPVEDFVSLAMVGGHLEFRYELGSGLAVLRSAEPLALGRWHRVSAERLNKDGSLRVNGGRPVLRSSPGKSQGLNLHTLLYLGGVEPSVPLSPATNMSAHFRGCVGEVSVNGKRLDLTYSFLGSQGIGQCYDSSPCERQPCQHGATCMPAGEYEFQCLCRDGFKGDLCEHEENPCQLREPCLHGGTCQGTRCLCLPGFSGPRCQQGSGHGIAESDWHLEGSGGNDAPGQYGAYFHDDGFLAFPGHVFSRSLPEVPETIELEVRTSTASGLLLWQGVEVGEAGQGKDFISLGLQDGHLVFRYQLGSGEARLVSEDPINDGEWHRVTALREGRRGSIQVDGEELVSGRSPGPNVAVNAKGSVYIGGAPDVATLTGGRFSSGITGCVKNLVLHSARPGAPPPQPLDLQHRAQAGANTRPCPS
Sequence of nidogen-2 (Q14112 31-1375): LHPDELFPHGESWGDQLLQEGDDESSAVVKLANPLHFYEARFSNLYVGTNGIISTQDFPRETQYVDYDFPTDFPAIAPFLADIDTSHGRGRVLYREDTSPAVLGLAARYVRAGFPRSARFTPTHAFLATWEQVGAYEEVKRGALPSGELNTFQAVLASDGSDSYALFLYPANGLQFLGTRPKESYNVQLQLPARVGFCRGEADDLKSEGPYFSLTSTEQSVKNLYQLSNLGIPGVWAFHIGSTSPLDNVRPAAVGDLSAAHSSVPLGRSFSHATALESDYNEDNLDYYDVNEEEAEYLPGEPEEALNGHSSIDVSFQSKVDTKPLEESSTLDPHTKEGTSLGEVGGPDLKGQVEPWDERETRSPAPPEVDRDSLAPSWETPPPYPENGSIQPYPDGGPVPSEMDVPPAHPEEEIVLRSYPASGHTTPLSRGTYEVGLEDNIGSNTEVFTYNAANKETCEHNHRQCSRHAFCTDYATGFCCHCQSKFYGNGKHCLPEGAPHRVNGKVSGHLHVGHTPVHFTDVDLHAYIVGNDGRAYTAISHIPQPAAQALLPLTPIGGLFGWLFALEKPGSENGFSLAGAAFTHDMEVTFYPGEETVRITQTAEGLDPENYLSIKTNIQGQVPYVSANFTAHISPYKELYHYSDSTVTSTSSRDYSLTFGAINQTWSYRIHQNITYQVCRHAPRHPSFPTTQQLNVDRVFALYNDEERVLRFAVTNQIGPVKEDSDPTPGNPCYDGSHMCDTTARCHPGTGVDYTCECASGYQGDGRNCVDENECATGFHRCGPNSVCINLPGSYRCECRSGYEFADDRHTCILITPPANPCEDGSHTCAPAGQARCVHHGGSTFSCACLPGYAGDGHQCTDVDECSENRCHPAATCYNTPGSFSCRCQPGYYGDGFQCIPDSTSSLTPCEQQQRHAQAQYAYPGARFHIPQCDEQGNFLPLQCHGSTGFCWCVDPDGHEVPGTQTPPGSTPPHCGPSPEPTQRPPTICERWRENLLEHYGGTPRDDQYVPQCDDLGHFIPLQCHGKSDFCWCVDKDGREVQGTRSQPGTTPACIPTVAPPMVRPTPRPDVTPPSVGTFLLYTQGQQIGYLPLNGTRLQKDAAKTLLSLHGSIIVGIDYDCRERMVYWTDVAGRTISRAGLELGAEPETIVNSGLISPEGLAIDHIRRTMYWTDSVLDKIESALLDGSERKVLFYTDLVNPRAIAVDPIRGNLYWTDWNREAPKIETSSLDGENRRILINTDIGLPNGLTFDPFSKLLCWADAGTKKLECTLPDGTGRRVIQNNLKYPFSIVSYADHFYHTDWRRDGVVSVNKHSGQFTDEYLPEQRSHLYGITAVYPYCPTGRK
Sequence of perlecan domain IV (from UniProt P98160) (P98160 1677-3686): as the sequence (P98160 1677-3686) above

nidogen-2 (from UniProt Q14112)
Kd (perlecan domain IV [1]): 10 nM

nidogen-1 G2 (from UniProt P14543)
Kd (perlecan domain IV [2]): 10 nM

nidogen (from UniProt P14543)
Kd (fibulin-2): < 0.5 nM

perlecan domain IV (from UniProt P98160)
Kd (fibronectin): 10 nM

α-dystroglycan (from UniProt Q14118)
Kd (agrin (muscle)): 2 nM | Kd (perlecan LG): 16 nM | Kd (α5-laminin): 150 nM | Kd (α1-laminin): 20 nM | Kd (α2-laminin): 43 nM | Kd (α4-laminin): > 1000 nM
